Experiments:
2249 (Homo sapiens) = 2249 (Homo sapiens) (UniProt P09326); experiment: ELISA, HEK293T culture supernatant (1:10) with the CD48-mouse Ig construct, antibody at 25, 250 and 500 ng/mL, detection goat anti-mouse IgG (H+L) HRP, Mean OD450-570
[1] = target: hCD48EC:mouse-Ig (non-mutated human CD48-mouse IgG1 fusion protein) (human) (UniProt P09326); experiment: as above
[2] = target: Cynomolgus Monkey CD48 (recombinant, CynoCD48 aa29-217) (cynomolgus monkey (Macaca fascicularis)); experiment: SPR Biacore T200, antibody captured on protein A chip, CD48 as analyte, 25 °C, 1:1 model

hCD48EC:mouse-Ig (non-mutated human CD48-mouse IgG1 fusion protein) (human), sequence (P09326 27-220, stated change not applied): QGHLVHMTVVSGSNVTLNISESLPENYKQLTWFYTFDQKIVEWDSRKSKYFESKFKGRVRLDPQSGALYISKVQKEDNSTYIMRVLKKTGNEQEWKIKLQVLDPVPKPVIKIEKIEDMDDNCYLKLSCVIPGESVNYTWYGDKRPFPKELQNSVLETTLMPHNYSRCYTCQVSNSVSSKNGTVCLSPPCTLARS
2249 (Homo sapiens), sequence (P09326 27-220): as the sequence (P09326 27-220, stated change not applied) above

EC50 (read off the curve) (2249 (Homo sapiens)) [µg/mL] | EC50 (read off the curve) [1] [µg/mL] | Kd [2] [nM] | koff [2] [s⁻¹] | kon [2] [M⁻¹ s⁻¹] | Binder
0.03 | 0.02 |  |  |  | humanized CD48A (antibody, V domains shown) VH: QVQLVQSGSELKKPGASVKVSCKASGYTFTDFGMNWVRQAPGQGLEWMGWINTFTGEPSYGNVFKGRFVFSLDTSVSTAYLQISSLKAEDTAVYYCARRHGNGNVFDSWGQGTLVTVSS VL: EIVLTQSPDFQSVTPKEKVTITCRASQSIGSNIHWYQQKPDQSPKLLIKYTSESISGVPSRFSGSGSGTDFTLTINSLEAEDAATYYCQQSNSWPLTFGGGTKVEIKR
 |  | 1.5 | 0.00037 | 250000 | NY938 (antibody, human IgG1, kappa, V domains shown) VH: QVQLVQSGAEVKKPGASVKVSCKASGYTFTEYTMHWVRQAPGQGLEWMGGINPDTGDTSYNQKFTGRATLTVDKSTSTAYMELSSLRSEDTAVYYCARAQFWTTPRFAYWGQGTLVTVSS VL: DIQMTQSPSSLSASVGDRVTITCKASQDVGTAVAWYQQKPGKVPKLLIYWASTRHTGVPSRFSGSGSGTDFTLTISSLQPEDVATYYCQQYSTYPITFGQGTKLEIKR
